The values that follow come from PMC5428262.

This experiment has as its target GFP-tagged tomosyn1 (GFP-Tomosyn1), wild type (rat) (UniProt Q9WU70). In words: co-IP; GFP antiserum and protein G agarose, overnight, 300 ug extract of INS 832/13 cells expressing GFP-tomosyn1 constructs; lysis buffer with 1% Triton X-100, 150 mM NaCl, 25 mM N-ethylmaleimide; blot; cells in regular media or treated with 10 mM glucose or 30 mM KCl (15 min) in KRB.
UniProt Q9WU70, sequence (Q9WU70 whole entry): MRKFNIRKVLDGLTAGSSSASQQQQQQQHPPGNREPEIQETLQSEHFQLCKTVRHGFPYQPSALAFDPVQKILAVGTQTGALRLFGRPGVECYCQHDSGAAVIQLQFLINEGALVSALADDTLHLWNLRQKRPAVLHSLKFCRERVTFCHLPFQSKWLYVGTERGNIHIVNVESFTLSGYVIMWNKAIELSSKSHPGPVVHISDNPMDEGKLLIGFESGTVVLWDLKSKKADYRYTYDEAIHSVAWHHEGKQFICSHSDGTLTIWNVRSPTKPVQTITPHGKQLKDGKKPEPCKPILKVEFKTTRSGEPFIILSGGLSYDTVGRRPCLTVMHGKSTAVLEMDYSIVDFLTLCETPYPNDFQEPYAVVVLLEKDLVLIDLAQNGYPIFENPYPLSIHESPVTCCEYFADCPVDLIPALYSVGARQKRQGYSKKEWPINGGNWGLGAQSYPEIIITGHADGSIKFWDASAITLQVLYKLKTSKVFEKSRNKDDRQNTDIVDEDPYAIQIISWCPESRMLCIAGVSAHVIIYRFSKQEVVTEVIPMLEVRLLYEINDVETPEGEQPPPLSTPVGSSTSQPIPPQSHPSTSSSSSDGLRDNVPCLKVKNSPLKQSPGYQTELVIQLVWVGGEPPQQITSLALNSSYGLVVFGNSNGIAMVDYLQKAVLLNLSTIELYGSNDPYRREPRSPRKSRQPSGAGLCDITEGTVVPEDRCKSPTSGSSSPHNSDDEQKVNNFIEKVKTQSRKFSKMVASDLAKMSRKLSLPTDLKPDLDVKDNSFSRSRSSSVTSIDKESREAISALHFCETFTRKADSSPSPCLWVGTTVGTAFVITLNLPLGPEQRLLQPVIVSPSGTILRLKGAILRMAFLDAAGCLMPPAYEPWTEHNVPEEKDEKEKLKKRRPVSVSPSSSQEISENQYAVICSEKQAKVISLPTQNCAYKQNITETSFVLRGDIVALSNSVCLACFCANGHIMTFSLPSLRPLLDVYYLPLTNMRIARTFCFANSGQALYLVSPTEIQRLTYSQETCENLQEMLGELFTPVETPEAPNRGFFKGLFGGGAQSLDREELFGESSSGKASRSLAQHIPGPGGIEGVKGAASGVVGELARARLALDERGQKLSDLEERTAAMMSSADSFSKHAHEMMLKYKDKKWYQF

B1: secretagogin (INS 832/13 cells) (natural protein)
chain: MDNAHRQTQAHLDAACFWQIWQRFDKDEKGYIKETELDAFFDDLLAKFGIEDTLMEENVQKMKEQLMVGHDISKEGRILMKELASMFLSEDENFLLFFRLETPLDNSVEFMQIWRKYDADSSGFISAAELSNFLRDLFLHHKKVISEAELEEYTSTMEKIFDRNKDGRLDLNDLARILALQENFLLQFKMDASSTEERKRDFEKIFAHYDVSKTGALEGPEVDGFVKDMMELVQPSISGVDLDKFREILLRHCDVNKDGKIQKSELALCLGLKINP
Take B1: the percent decrease of the interaction after KCl stimulation worked out at 65.3% and the percent decrease of the interaction after glucose stimulation worked out at 44.6%.
